Reference: patent US20210371503A1 (UNIVERSITY OF COLOGNE, published 2021)
Substitutions are numbered along the chain they refer to.

Assays:
[1] = target: T1, receptor-binding domain (RBD) of the spike (S) protein of SARS-CoV-2 (SARS-CoV-2, UniProt P0DTC2 319-541); test: ELISA, coated RBD [cont'd]
T1 construct: also called soluble RBD

[2] = target: S1 (truncated S1 subunit); test: ELISA, coated truncated S1 [cont'd]
[3] = target: T1, receptor-binding domain (RBD) of the …
[4] = target: S1 (truncated S1 subunit); test: ELISA, coated truncated S1 [cont'd]; remark: listed apart in the source
[5] = target: T1, receptor-binding domain (RBD) of the …; test: ELISA, coated RBD [cont'd]; remark: listed apart in the source
[6] = target: S1 (truncated S1 subunit); test: ELISA, coated truncated S1
[7] = target: T1, receptor-binding domain (RBD) of the …; test: ELISA, coated RBD
[8] = target: T1, receptor-binding domain (RBD) of the …; test: ELISA, coated RBD [cont'd]; remark: listed apart in the source
[9] = target: S1 (truncated S1 subunit); test: ELISA, coated truncated S1 [cont'd]; remark: listed apart in the source

B1: MnC2t1p1_A3 (antibody, V domains shown)
VH: EVQLVESGGGLVQPGGSLRLSCAASGFTVSSNYMSWVRQAPGRGLEWVSVIYSGGSTFYADSVKGRFTISRDNSKNTLYLQMNSLRPEDTAVYYCATGARFGESPFDYWGQGTLVTVSS
VL: DIQMTQSPSSVSASVGDRVTITCRASQGISSWLAWYQQKPGKAPKLLIYAASSLQSGVPSRFSGSGSGTDFTLTISSLQPEDFATYYCQQANSFPGTFGQGTKVEIK
Q: How did the EC50 [1] turn out when B1 was run?
A: < 100 µg/mL

Q: What about the EC50 [2] of the same binder?
A: < 100 µg/mL

Q: What about the Kd [3] of the same binder?
A: 0.7 nM

B2: MnC2t1p1_C5 (antibody, V domains shown)
VH: B1 VH with R43K, F58Y, P87A
VL: B1 VL
Q: Which EC50 [1] does the source give for B2 here?
A: < 100 µg/mL

Q: And the EC50 [2]?
A: < 100 µg/mL

B3: MnC2t2p1_C11 (antibody, V domains shown)
VH: QVQLVQSGAEVKKPGSSVKVSCKASGGTFSRYTIIWVRQAPGQGLEWMGRIIPILDIANYAQKFQGRVTITADKSTSTAYMELSSLRSEDTAVYYCAREGGLDYFGSRNSGWTYTWFDPWGQGTLVTVSS
VL: DIQMTQSPSSLSASVGDRVTITCRASQNISSYLNWYQQKPGKAPNLLIYAASSLQSGVPPRFSGSGSGTDFTLTISSLQPEDFATYYCQQSYSTLYSFGQGTKLEIK
Q: How did the EC50 [1] turn out when B3 was run?
A: < 100 µg/mL

Q: What about the EC50 [2] of the same binder?
A: < 100 µg/mL

Q: And the Kd [3]?
A: 0.02 nM

B4: MnC4t2p2_A4 (antibody, V domains shown)
VH: QVQLVQSGSELKKPGASVKISCKASGYIFINYAMNWVRQAPGQGLEWMGWINTNTGNPTYAQDFTGRFVFSLDTSLSTAYLQISSLEAEDTAVYYCAKIGSRNSLGVWGQGTLVTVSA
VL: EIVLTQSPGTLSLSPGERATLSCRASHSVDRSYLAWYQQKPGLAPRLLIYGASSRATGIPDRFSGSGSGTDFTLTISRLEPEDFALYYCQHFGTSSVTFGRGTRLEIK
Q: B4 was tested. Which EC50 [4] did it give?
A: < 100 µg/mL

Q: And the EC50 [5]?
A: < 100 µg/mL

Q: And the Kd [3]?
A: 14 nM

B5: CnC2t1p1_B10 (antibody, V domains shown)
VH: QVQLVQSGAEVKKPGSSVKVSCKASGGTFSSYAISWVRQAPGQGLEWMGGIIPIFGTANYAQKFQGRVTITADKSTSTAYMELSSLRSEDTAVYYCARVSGYDSSGYWGDYWGQGTLVTVSS
VL: EIVLTQSPATLSLSPGERATLSCRASQSVSSYLAWYQQKPGQAPRLLIYDASNRATGIPARFSGSGSGTDFTLTISSLEPEDFAVYYCQQRSNWPPALTFGGGTKVEIK
Q: Which EC50 [6] does the source give for B5 here?
A: < 100 µg/mL

Q: And the EC50 [7]?
A: < 100 µg/mL

B6: CnC2t1p1_B4 (antibody, V domains shown)
VH: QVQLVQSGAEVKKPGASVKVSCKASGYTFTSYGISWVRQAPGQGLEWMGWISAYNGNTNYAQKLQGRVTMTTDTSTSTAYMELRSLRSDDTAVYYCARDGELLGWFDPWGQGTLVTVSS
VL: QSALTQPASVSGSPGQSITISCTGTSSDVGSYNLVSWYQQHPGKAPKLMIYEGSKRPSGVSNRFSGSKSGNTASLTISGLQAEDEADYYCCSYAGSSTWVFGGGTKLTVL
Q: B6 was tested. Which EC50 [6] did it give?
A: < 100 µg/mL

Q: And the EC50 [7]?
A: < 100 µg/mL

B7: CnC2t1p1_E8 (antibody, V domains shown)
VH: QVQLVQSGAEVKNPGASVKVSCKASGYIFTNYYIHWVRQAPGQGLEWVGWIHSLSGGTSYAQKFQGRVTLTRDASIRTAYMELSRLGSDDTALYYCARASVSTITDFDYWGQGTLVAVSS
VL: B6 VL with S27G, M49V, G53A, S54T, S65F, G66A, S96V, S97R, W99V
Q: Which results are given for B7?
A: EC50 [6]: < 100 µg/mL; EC50 [7]: < 100 µg/mL

B8: CnC2t1p1_G6 (antibody, V domains shown)
VH: B7 VH with N13K, S75P, R85G, L93V, S102A
VL: B6 VL with S27G, V29I, H41Y, M49I, G53A, S65F, G66A, S96V, S97R, W99V
Q: B8 was tested. Which EC50 [6] did it give?
A: < 100 µg/mL

Q: What about the EC50 [7] of the same binder?
A: < 100 µg/mL

B9: FnC1t1p2_A5 (antibody, V domains shown)
VH: QVQLVQSGAEVKKPGASVKVSCKASGYTFTSYDINWVRQATGQGLEWMGWMNPNSGNTGYAQKFQGRVTMTRNTSISTAYMELSSLRSEDTAVYYCARATTDCSSTSCWSLDFWSGYYTGGREKIFDYWGQGTLVTVSS
VL: not shown
Q: With B9 as the binder, how does the EC50 [6] read?
A: > 1000 µg/mL

Q: Does B9 bind [7]?
A: no binding

B10: HbnC2t1p2_D9 (antibody, V domains shown)
VH: QVQLVESGGGVVQPGRSLRLSCAASGFTFSSYGMHWVRQAPGKGLEWVAVIWYDGRNKYYVDSVKGRFTISRDNSKNTLYLQISSLRAEDTAVYYCARAARRPVVTDTMAYYMDVWGKGTTVTVSS
VL: EIVLTQSPATLSLSPGERATLSCRASLSLSSYLAWYQQKPGQAPRLLIYDASNRATGIPARFSGSGSGTDFTLTISSLEPEDFAVYYCQQRSNWPPTWTFGQGTKAEIKR
Q: B10 was tested. Which EC50 [8] did it give?
A: < 1000 µg/mL

Q: And the EC50 [9]?
A: < 1000 µg/mL

B11: MnC4t2p1_B3 (antibody, V domains shown)
VH: EVQLVESGGHLVQPGRSLRLSCAASGFTFDDYAMHWVRQVPGKGLEWVSGISWNGGILDYADSVKGRFTISRDNAKNSLYLHMRSLRTDDTALYYCAKDLRRQDYYADWYFDLWGRGTLVTVSS
VL: DIQMIQSPSSVSASVGDRVTITCRASQGISSWLAWYQQKPGKAPKLLIYAASTLLSAVPSRFSGSGSGTDFTLTISSLQPEDFATYYCQQGNSFPFTFGPGTIVDV
Q: Which EC50 [1] does the source give for B11 here?
A: < 100 µg/mL

Q: What about the EC50 [2] of the same binder?
A: < 100 µg/mL

Q: What about the Kd [3] of the same binder?
A: 0.09 nM

B12: MnC4t2p1_E6 (antibody, V domains shown)
VH: B11 VH with D59G, H82Q
VL: B11 VL with I5T, I103K
Q: What does the source list for B12?
A: EC50 [4]: < 100 µg/mL; EC50 [5]: < 100 µg/mL

B13: CnC2t1p1_D6 (antibody, V domains shown)
VH: EVQLVESGGGLVQPGRSLRLSCTASGFTFGDYAMSWFRQAPGKGLEWVGFIRSKAYGGTTEYAASVKGRFTISRDDSKSIAYLQMNSLKTEDTAVYYCTRVRRLWFGSYYYGMDVWGQGTTVTVSS
VL: not shown
Q: For B13, which EC50 [6] is on record?
A: < 100 µg/mL

Q: What about the EC50 [7] of the same binder?
A: < 100 µg/mL

B14: MnC1t3p1_G9 (antibody, V domains shown)
VH: EVQLLESGGGLVQPGGSLRLSCAASGFTFRNYAMTWVRQAPGKGLEWVSGISDSGDRTYNADSVKGRFSISRDNSKNTLHLQMNSLRAEDTAVYYCALASGSYFGGANYWGQGTLVTVSS
VL: QAVVTQEPSLTVSPGGTVTLTCGSSTGPVTSDHYPYWFQQKPGQAPTTLIYDTNNKHSWTPARFSGSLLGGKAALTLSGAQPEDEAEYYCLLSYTGARVFGGGTKLTVL
Q: What does the source list for B14?
A: EC50 [1]: < 100 µg/mL; EC50 [2]: < 100 µg/mL

B15: HbnC3t1p1_F4 (antibody, V domains shown)
VH: QVQLVESGGGVVQPGRSLRLSCAATGFTFRRYGMHWVRQAPGKGLEWVAGILFDGSNKYYVDSVKGRFTISRDSSRNTLYLQLNSLRREDTAVYYCAKGGDYEWELLESWGQGTLVTVSS
VL: DIQMTQSPSTVSASVGDRVTITCRASQSIDNWLAWYQEKPGKAPKVLIYKASSLESGVPSRFSGRGSGTEFTLTISSLQPGDFATYYCQHYHSFPLTFGGGTKVDIK
Q: How did the EC50 [8] turn out when B15 was run?
A: < 1000 µg/mL

Q: What about the EC50 [9] of the same binder?
A: < 100 µg/mL

B16: FnC1t2p1_D4 (antibody, V domains shown)
VH: QVQLVQSGSELKKPGASVKVSCKASGYTFLRFAMNWLRQAPGQGLEWMGWIDTNTGTPTYAQGFTGRFVFSLDTSVSTAYLQISSLKAEDTAVYYCARSLRGANLVPWGQGTLVTVSS
VL: DIQMTQSPSSLSASVGDRVTITCQASQDVSNYLNWYQQQPGKAPKLLIYDAFNLETGVPSRFSGSGSGTDFTFTISSLQPEDIATYYCQQYDNLPLTFGGGTKVEIK
Q: Which EC50 [6] does the source give for B16 here?
A: < 100 µg/mL

Q: And the EC50 [7]?
A: < 100 µg/mL

Q: What about the Kd [3] of the same binder?
A: 0.2 nM

B17: FnC1t2p1_G5 (antibody, V domains shown)
VH: B16 VH
VL: B16 VL
Q: B17 was tested. Which EC50 [8] did it give?
A: < 100 µg/mL

Q: And the EC50 [9]?
A: < 100 µg/mL

Q: And the Kd [3]?
A: 0.1 nM

B18: HbnC3t1p1_G4 (antibody, V domains shown)
VH: EVQLVESGGGLVQPGGSLRLSCAASGFTVSSNYMSWVRQAPGKGLEWVSVIYSGGSTFYADSVKGRFTISRDNSKNTLYLQMNSLRAEDTAVYYCARDFGDFFFDYWGQGTLVTVSS
VL: EIVLTQSPGTLSLSPGERATLSCRASQSVSSYLAWYQQKPGQAPRLLIYGVSSRATGIPDRFSGSGSGTDFTLTISRLEPEDFAVYYCQQYGSSPRTFGQGTKVEIK
Q: B18 was tested. Which EC50 [8] did it give?
A: < 100 µg/mL

Q: And the EC50 [9]?
A: < 100 µg/mL

B19: HbnC3t1p2_B10 (antibody, V domains shown)
VH: B18 VH with T28I, F99Y, F102Y
VL: B18 VL with Y49S, V51A, T56A, S76N, V104L
Q: Which results are given for B19?
A: EC50 [8]: < 100 µg/mL; EC50 [9]: < 100 µg/mL

B20: HbnC3t1p1_C6 (antibody, V domains shown)
VH: QMQLVQSGPEVKKPGTSVKVSCKASGFTFTSSAVQWVRQARGQRLEWIGWIVVGSGNTNYAQKFQERVTITRDMSTSTAYMELSSLRSEDTAVYYCAAPHCSSTICYDGFDIWGQGTMVTVSS
VL: not shown
Q: Which EC50 [8] does the source give for B20 here?
A: < 100 µg/mL

Q: What about the EC50 [9] of the same binder?
A: < 100 µg/mL

B21: HbnC4t1p1_D5 (antibody, V domains shown)
VH: EVQLVESGGGLVQPGRSLRLSCAASGFTFDDYAMHWVRQAPGKGLEWVSGISWNSGSIGYADSVKGRFTISRDNAKNSLYLQMNSLRAEDTGLYYCAKDINYDSGGYHKNYFDYWGQGTLVTVSS
VL: DIQMTQSPSSLSASVGDRATITCRASQSISSYLNWYQEKPGKAPKLLIYAASSLQSGVPSRFSGSGSGTDFTLTISSLQPEDFATYYCQQSYSNPLTFGGGTKVEIK
Q: How did the EC50 [8] turn out when B21 was run?
A: < 1000 µg/mL

Q: What about the EC50 [9] of the same binder?
A: < 1000 µg/mL
